# According to the DeepSol protein solubility set:
# Assay: soluble on expression in E. coli; label from the status in PepcDB or PDB records
row,Sequence,soluble on expression in E. coli
1,MGKLYVVPTPVGNLEDMTFRAIRVLKEVDLILAEDTRTSGILLKHFEIKNAMQSHHKFNEHKTVESVVNRIKAGETVALISDAGTPGISDPGFLVVRECVRNGIEVQCLPGATAFVPALVASGLPNEKFCFEGFLPQKKGRQTRLKALAEEHRTMVFYESPHRLLKTLTQFAEYFGTERQATVSREISKLHEETVRGSLAELIEHFTATEPRGEIVIVLAGIDD,soluble
2,MGSDKIHHHHHHMYLALIGDIINSKQILERETFQQSFQQLMTELSDVYGEELISPFTITAGDEFQALLKPSKKVFQIIDHIQLALKPVNVRFGLGTGNIITSINSNESIGADGPAYWHARSAINHIHDKNDYGTVQVAICLDDEDQNLELTLNSLISAGDFIKSKWTTNHFQMLEHLILQDNYQEQFQHQKLAQLENIEPSALTKRLKASGLKIYLRTRTQAADLLVKSCTQTKGGSYDF,not soluble
3,MIVLIDNYDSFTYNLYQLLGEYEEEIVVVRNDQITIEQLEEMNPKGIVLSPGPGKPEEAGICIEVIRHFYKNVPILGICLGHQAIISAFGGEIVRAERIKHGKTSRAKHNGTSIFSYVTQPLTAMRYHSLVAAQTSLPQCFDILATAMDDGEIMAVRHNYYPLFGLQFHPESIATEEGGKLIRAFLGEVKEEERV,not soluble
4,MVVNKRLILILLFILNTAKSDELSWKGNDFTLYARQMPLAEVLHLLSENYDTAITISPLITATFSGKIPPGPPVDILNNLAAQYDLLTWFDGSMLYVYPASLLKHQVITFNILSTGRFIHYLRSQNILSSPGCEVKEITGTKAVEVSGVPSCLTRISQLASVLDNALIKRKDSAVSVSIYTLKYATAMDTQYQYRDQSVVVPGVVSVLREMSKTSVPTSSTNNGSPATQALPMFAADPRQNAVIVRDYAANMAGYRKLITELDQRQQMIEISVKIIDVNAGDINQLGIDWGTAVSLGGKKIAFNTGLNDGGASGFSTVISDTSNFMVRLNALEKSSQAYVLSQPSVVTLNNIQAVLDKNITFYTKLQGEKVAKLESITTGSLLRVTPRLLNDNGTQKIMLNLNIQDGQQSDTQSETDPLPEVQNSEIASQATLLAGQSLLLGGFKQGKQIHSQNKIPLLGDIPVVGHLFRNDTTQVHSVIRLFLIKASVVNNGISHGLEHHHHHH,soluble
5,MSLAEQIEFDQAHLTLQEITEALDNGRFVHVRRQLQDMEPEDIAHLLEASPRKAREVLWQLTDPEDYGEILDELNEDVKDALVSKMAPEKLAEATEGMDIDDVAYVLRSLPDDVSREVLSQMDAADRMRVETALSYPEDTAGGLMNTDVITIRADVDVDVVLRYLRMKGELPEATDALYVIDDESKLIGHLSLVTLLTTQPDVPVSEVMDDADEAIKVDMKDSDIANLFERRNWVSAPVVDENQHLVGRITIDDVVDIIREDAEHSMMSMAGMDDDEDTFAPEGHHHHHH,soluble
6,MGSDKIHHHHHHMKTDITVVKASHLQPFISFLDKVGAPLDRLLNQVNLHADYFSDQENLIAEAPFWALLEHASYSQGIEDLGFQVTEQLSLDSFGVFGAKVMQADSLHQALTTFIRDMGQQSNCPPFWLMEQGAFVWFCRLGTQGIKKGHWPIEQHVISLMIQLVRGFTTATWTPPKVHLQTHTLKGADNTASFSNSQILINKAFTGICISKSLLLNGAVIKPKDRVAEEVAHQMTISTVNSHVIKELLMQSCANQPLNAQQIANSLGLNIRHMQRLLKEEGCSYRELSEQVLFKQSQVMLSTEQLSVLEVALALGYSDAANFTRAFKRWSGLSPTQYKLLLN,not soluble
7,ENEIERPEDMRVRTLANKSKMKVSIVQQIDRKVALDDIAVSHGLDFPELLSEVETIVYSGTRINIDYFINEVMDEDHLEDIFEYFKESTTDSLEEAMQELGKDYSEEEIRLVRIKFLSEMAN,soluble
8,MGSDKIHHHHHHMDKAKLIDLIKTNPNALVYIPNPSDELKLLAVQKNGLALKHIEHPTPEMQELALANNSRAIQFIDNPTEEMMNKAIQDSWVNLEYLQHPSETIIKLAITQAGWAIKYVKHPSEELQLLAVRRHYDSIKFIKDPCPKAQEEAVRINYDALRYIDSPTPQAELLAIRNHESAIAFVKDLSKEKILQFLGVNFLVIKYVRNDITKAELEQVLKETLGQEDVDEKYVRDFLNSSTIHKNSGQMSLDKIMFIYHYGSRKAKKVAVDEKLKI,not soluble
9,MTNGIFKHSNQSILEDQDHVKKSTVEILMPAYVIGGPIRSIRVDKDRLFVLGMKNHPEVIDLTQMSHGTSLILEKIMSGNRYYTTQISMNQAAELCHVAHELKLVNLLKLVEMDMIRRPSTSMKHAVDALVLALKFGMLEAVNKLIDEIIFEFFNGLGLVGYCKSSTALEMIFDKNEMMLKEEIEVGRLNSEWNEPLPVGQEVVPSLPRGNNAQIPRIMLNVAKERIRSLVARPINSVKNGFAWISAQNLRRRGPRNHQDFPNFPD,not soluble
